# In patent US20140274782A1, “AFFINITY REAGENTS AND METHODS FOR DETECTION, PURIFICATION, AND PROTEOMIC ANALYSIS OF METHYLATED PROTEINS” (The Board of Trustees of the Leland Stanford Junior …, priority 2013, published 2014):
# T1: G9a and GLP (Homo sapiens, UniProt Q96KQ7+Q9H9B1)
# T1 sequence (Q96KQ7 2-1210 limits assumed): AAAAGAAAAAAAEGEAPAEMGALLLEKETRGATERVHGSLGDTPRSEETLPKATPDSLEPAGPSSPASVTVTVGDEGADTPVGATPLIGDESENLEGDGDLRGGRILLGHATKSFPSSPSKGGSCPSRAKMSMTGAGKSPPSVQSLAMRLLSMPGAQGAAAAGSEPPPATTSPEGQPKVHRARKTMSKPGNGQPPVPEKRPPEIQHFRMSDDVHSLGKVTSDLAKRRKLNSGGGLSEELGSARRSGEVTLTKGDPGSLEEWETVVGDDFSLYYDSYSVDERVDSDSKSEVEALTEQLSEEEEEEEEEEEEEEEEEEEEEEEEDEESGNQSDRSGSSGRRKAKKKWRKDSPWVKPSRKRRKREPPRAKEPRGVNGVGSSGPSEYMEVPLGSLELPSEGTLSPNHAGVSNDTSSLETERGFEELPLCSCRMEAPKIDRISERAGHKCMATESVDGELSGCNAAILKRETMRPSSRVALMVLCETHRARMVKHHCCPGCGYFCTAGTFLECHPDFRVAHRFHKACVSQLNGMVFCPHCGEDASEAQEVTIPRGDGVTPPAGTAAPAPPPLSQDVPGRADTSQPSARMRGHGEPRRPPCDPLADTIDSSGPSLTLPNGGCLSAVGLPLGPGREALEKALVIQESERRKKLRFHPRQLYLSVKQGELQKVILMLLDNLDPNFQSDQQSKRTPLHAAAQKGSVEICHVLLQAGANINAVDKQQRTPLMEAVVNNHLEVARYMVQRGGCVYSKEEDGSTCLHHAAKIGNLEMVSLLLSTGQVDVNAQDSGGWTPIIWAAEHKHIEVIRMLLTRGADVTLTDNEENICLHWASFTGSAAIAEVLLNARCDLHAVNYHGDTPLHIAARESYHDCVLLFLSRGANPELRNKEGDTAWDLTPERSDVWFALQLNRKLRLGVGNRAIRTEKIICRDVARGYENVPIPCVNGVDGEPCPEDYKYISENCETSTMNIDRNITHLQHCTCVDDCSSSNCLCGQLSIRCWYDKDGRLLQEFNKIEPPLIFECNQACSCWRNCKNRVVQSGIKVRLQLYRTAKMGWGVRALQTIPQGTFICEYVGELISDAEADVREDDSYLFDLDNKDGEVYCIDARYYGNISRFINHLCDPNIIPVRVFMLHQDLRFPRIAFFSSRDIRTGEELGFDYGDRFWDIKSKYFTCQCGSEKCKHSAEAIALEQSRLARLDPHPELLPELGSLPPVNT
# T1 sequence (Q9H9B1 2-1298 limits assumed): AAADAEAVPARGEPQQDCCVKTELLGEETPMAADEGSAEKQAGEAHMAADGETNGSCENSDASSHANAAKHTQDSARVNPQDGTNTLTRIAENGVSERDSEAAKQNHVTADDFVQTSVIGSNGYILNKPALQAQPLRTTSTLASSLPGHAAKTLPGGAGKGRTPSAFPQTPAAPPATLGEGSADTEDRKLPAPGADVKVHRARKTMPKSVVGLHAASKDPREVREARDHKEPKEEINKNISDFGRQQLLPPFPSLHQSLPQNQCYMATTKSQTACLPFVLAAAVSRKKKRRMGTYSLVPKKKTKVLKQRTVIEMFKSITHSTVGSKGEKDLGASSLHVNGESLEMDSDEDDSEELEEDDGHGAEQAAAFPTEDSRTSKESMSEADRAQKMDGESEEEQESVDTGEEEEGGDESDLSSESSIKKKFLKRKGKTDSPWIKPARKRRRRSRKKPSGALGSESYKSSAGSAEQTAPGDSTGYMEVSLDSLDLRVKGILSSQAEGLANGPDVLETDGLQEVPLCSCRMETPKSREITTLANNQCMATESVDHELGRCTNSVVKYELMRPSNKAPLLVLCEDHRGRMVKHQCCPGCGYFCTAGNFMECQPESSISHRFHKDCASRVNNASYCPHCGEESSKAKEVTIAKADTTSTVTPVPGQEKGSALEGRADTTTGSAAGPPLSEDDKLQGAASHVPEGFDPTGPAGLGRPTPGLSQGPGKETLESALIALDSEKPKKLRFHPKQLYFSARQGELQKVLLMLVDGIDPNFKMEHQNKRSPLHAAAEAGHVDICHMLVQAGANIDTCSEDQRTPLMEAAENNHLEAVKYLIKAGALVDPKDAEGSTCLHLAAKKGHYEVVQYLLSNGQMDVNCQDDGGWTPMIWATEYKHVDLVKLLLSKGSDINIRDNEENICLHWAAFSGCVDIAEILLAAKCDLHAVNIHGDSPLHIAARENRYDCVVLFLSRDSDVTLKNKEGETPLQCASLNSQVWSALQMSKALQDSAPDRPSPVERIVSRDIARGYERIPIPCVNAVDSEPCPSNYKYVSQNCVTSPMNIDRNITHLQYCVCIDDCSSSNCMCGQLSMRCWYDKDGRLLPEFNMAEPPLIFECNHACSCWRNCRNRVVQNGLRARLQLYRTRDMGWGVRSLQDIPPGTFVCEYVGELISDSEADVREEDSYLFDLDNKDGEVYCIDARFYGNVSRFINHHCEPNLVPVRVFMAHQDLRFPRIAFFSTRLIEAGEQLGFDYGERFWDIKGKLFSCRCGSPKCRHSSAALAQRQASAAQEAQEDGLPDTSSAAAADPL
# B1: THYN1 (protein, UniProt Q9P016 1-225, looked up)
# Thymocyte nuclear protein 1: MSRPRKRLAGTSGSDKGLSGKRTKTENSGEALAKVEDSNPQKTSATKNCLKNLSSHWLMKSEPESRLEKGVDVKFSIEDLKAQPKQTTCWDGVRNYQARNFLRAMKLGEEAFFYHSNCKEPGIAGLMKIVKEAYPDHTQFEKNNPHYDPSSKEDNPKWSMVDVQFVRMMKRFIPLAELKSYHQAHKATGGPLKNMVLFTRQRLSIQPLTQEEFDFVLSLEEKEPS
# B2: SRRT (protein, UniProt Q9BXP5 2-876, looked up)
# Serrate RNA effector molecule …: GDSDDEYDRRRRDKFRRERSDYDRSRERDERRRGDDWNDREWDRGRERRSRGEYRDYDRNRRERFSPPRHELSPPQKRMRRDWDEHSSDPYHSGYEMPYAGGGGGPTYGPPQPWGHPDVHIMQHHVLPIQARLGSIAEIDLGVPPPVMKTFKEFLLSLDDSVDETEAVKRYNDYKLDFRRQQMQDFFLAHKDEEWFRSKYHPDEVGKRRQEARGALQNRLRVFLSLMETGWFDNLLLDIDKADAIVKMLDAAVIKMEGGTENDLRILEQEEEEEQAGKPGEPSKKEEGRAGAGLGDGERKTNDKDEKKEDGKQAENDSSNDDKTKKSEGDGDKEEKKEDSEKEAKKSSKKRNRKHSGDDSFDEGSVSESESESESGQAEEEKEEAEEALKEKEKPKEEEWEKPKDAAGLECKPRPLHKTCSLFMRNIAPNISRAEIISLCKRYPGFMRVALSEPQPERRFFRRGWVTFDRSVNIKEICWNLQNIRLRECELSPGVNRDLTRRVRNINGITQHKQIVRNDIKLAAKLIHTLDDRTQLWASEPGTPPLPTSLPSQNPILKNITDYLIEEVSAEEEELLGSSGGAPPEEPPKEGNPAEINVERDEKLIKVLDKLLLYLRIVHSLDYYNTCEYPNEDEMPNRCGIIHVRGPMPPNRISHGEVLEWQKTFEEKLTPLLSVRESLSEEEAQKMGRKDPEQEVEKFVTSNTQELGKDKWLCPLSGKKFKGPEFVRKHIFNKHAEKIEEVKKEVAFFNNFLTDAKRPALPEIKPAQPPGPAQILPPGLTPGLPYPHQTPQGLMPYGQPRPPILGYGAGAVRPAVPTGGPPYPHAPYGAGRGNYDAFRGQGGYPGKPRNRMVRGDPRAIVEYRDLDAPDDVDFF
# B3: MRE11A (protein, UniProt P49959 2-708, looked up)
# Double-strand break repair …: STADALDDENTFKILVATDIHLGFMEKDAVRGNDTFVTLDEILRLAQENEVDFILLGGDLFHENKPSRKTLHTCLELLRKYCMGDRPVQFEILSDQSVNFGFSKFPWVNYQDGNLNISIPVFSIHGNHDDPTGADALCALDILSCAGFVNHFGRSMSVEKIDISPVLLQKGSTKIALYGLGSIPDERLYRMFVNKKVTMLRPKEDENSWFNLFVIHQNRSKHGSTNFIPEQFLDDFIDLVIWGHEHECKIAPTKNEQQLFYISQPGSSVVTSLSPGEAVKKHVGLLRIKGRKMNMHKIPLHTVRQFFMEDIVLANHPDIFNPDNPKVTQAIQSFCLEKIEEMLENAERERLGNSHQPEKPLVRLRVDYSGGFEPFSVLRFSQKFVDRVANPKDIIHFFRHREQKEKTGEEINFGKLITKPSEGTTLRVEDLVKQYFQTAEKNVQLSLLTERGMGEAVQEFVDKEEKDAIEELVKYQLEKTQRFLKERHIDALEDKIDEEVRRFRETRQKNTNEEDDEVREAMTRARALRSQSEESASAFSADDLMSIDLAEQMANDSDDSISAATNKGRGRGRGRRGGRGQNSASRGGSQRGRADTGLETSTRSRNSKTAVSASRNMSIIDAFKSTRQQPSRNVTTKNYSEVIEVDESDVEEDIFPTTSKTDQRWSSTSSSKIMSQSQVSKGVDFESSEDDDDDPFMNTSSLRRNRR
# B4: NPM3 (protein, UniProt O75607 2-178, looked up)
# Nucleoplasmin-3: AAGTAAALAFLSQESRTRAGGVGGLRVPAPVTMDSFFFGCELSGHTRSFTFKVEEEDDAEHVLALTMLCLTEGAKDECNVVEVVARNHDHQEIAVPVANLKLSCQPMLSLDDFQLQPPVTFRLKSGSGPVRITGRHQIVTMSNDVSEEESEEEEEDSDEEEVELCPILPAKKQGGRP
# B5: CGGBP1 (protein, UniProt Q9UFW8 1-167, looked up)
# CGG triplet repeat-binding …: MERFVVTAPPARNRSKTALYVTPLDRVTEFGGELHEDGGKLFCTSCNVVLNHVRKSAISDHLKSKTHTKRKAEFEEQNVRKKQRPLTASLQCNSTAQTEKVSVIQDFVKMCLEANIPLEKADHPAVRAFLSRHVKNGGSIPKSDQLRRAYLPDGYENENQLLNSQDC
# B6: RPRD1A (protein, UniProt Q96P16 2-312, looked up)
# Regulation of nuclear …: SAFSEAALEKKLSELSNSQQSVQTLSLWLIHHRKHSRPIVTVWERELRKAKPNRKLTFLYLANDVIQNSKRKGPEFTKDFAPVIVEAFKHVSSETDESCKKHLGRVLSIWEERSVYENDVLEQLKQALYGDKKPRKRTYEQIKVDENENCSSLGSPSEPPQTLDLVRALQDLENAASGDAAVHQRIASLPVEVQEVSLLDKITDKESGERLSKMVEDACMLLADYNGRLAAEIDDRKQLTRMLADFLRCQKEALAEKEHKLEEYKRKLARVSLVRKELRSRIQSLPDLSRLPNVTGSHMHLPFAGDIYSED
# System: 3×MBT domain of L3MBTL1
# Test: Triple SILAC pull-down, 3xMBT/3xMBTD355N ratio (cytoplasmic, nuclear and chromatin fractions of 293T cells);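 also: proteins quantified with MaxQuant, requiring at least two unique peptides and quantification in both label directions, normalized to the mean of proteins from a digested loading control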
# Type: binding, human
# Details: SILAC ratio 3xMBT vs 3xMBTD355N pull-down, 293T cells; experiment with UNC0638 in heavy SILAC media; all values in log base 2
row,Molecule,3xMBT/D355N UNC Heavy
1,B1,2.42 log base 2
2,B2,2.15 log base 2
3,B3,1.35 log base 2
4,B4,2.70 log base 2
5,B5,2.44 log base 2
6,B6,2.16 log base 2

# Same assay, conditions: SILAC ratio 3xMBT vs 3xMBTD355N pull-down, 293T cells; experiment with UNC0638 in light SILAC media; all values in log base 2
row,Molecule,3xMBT/D355N UNC Light
1,B1,2.85 log base 2
2,B2,2.41 log base 2
3,B3,2.06 log base 2
4,B4,2.15 log base 2
5,B5,2.49 log base 2
6,B6,1.62 log base 2

# Biological target: T1, G9a and GLP
# Test: Triple SILAC pull-down after UNC0638 treatment of 293T cells, DMSO/UNC0638 ratio of protein captured by 3×MBT;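 also: mass spectrometry (Q-Exactive) SILAC quantitation, DMSO/UNC0638 ratio computed after subtracting 3×MBTD355N mutant pull-down background, only proteins with at least twofold 3×MBT over mutant signal considered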
# Type: cell-based
# Set-up: cells were treated for 24 hours with UNC0638 at 2.5 μM or DMSO vehicle control; endogenous in cells; host or cells: HEK 293T
# Details: SILAC ratio DMSO relative to UNC0638, pull-down with 3xMBT; UNC0638 in heavy SILAC media; all values in log base 2
row,Relative to UNC0638 UNC Heavy,Molecule
1,−0.01 log base 2,B1
2,0.02 log base 2,B2
3,0.07 log base 2,B3
4,0.13 log base 2,B4
5,0.05 log base 2,B5
6,0.16 log base 2,B6

# Same assay, conditions: SILAC ratio DMSO relative to UNC0638, pull-down with 3xMBT; UNC0638 in light SILAC media; all values in log base 2
row,Relative to UNC0638 UNC Light,Molecule
1,0.18 log base 2,B1
2,0.15 log base 2,B2
3,0.07 log base 2,B3
4,0.03 log base 2,B4
5,0.12 log base 2,B5
6,−0.02 log base 2,B6

# Same assay, conditions: average of UNC Light and UNC Heavy experiments; all values in log base 2
row,Relative to UNC0638 Average,Molecule
1,0.09 log base 2,B1
2,0.08 log base 2,B2
3,0.07 log base 2,B3
4,0.08 log base 2,B4
5,0.09 log base 2,B5
6,0.07 log base 2,B6
